Experimental data taken from patent US20210363269A1 (ALX ONCOLOGY, published 2021).
Numbering of substitutions follows the chain as printed. Names may count otherwise. Blank lines part the entries; values can stand above or below the binder they belong to.

Tests used:
human SIRP-α v2 = target: T1, human SIRP-α v2 (human); test: SPR
T1 construct: also called Human v2; Human V2
Summary of the method: (§1)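 Runs took place at 25° C in PBS pH 7.4 containing 0.01% Tween-20 on a ProteOn XPR36 biosensor, with purified antibodies either amine-coupled to a GLC chip or captured through biotinylated Protein A on an NLC chip. SIRP analytes went in by one-shot kinetic injection at nominal concentrations based on A280 absorbance. Apparent rate constants came from a global simple Langmuir fit of double-referenced data, and KD was calculated as kd/ka.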

human SIRPβ isoform 1 [1] = target: T2, human SIRPβ isoform 1 (human, UniProt O00241 30-148); test: SPR Koff +/-
T2 construct: also called Beta; Human SIRPb
Summary of the method: as §1

human SIRP-α v1 = target: T3, human SIRP-α v1 (human, UniProt P78324 31-149); test: SPR; fitted KD column of Table P
T3 construct: also called Human v1; Human V1
T3 sequence (P78324 31-149 limits assumed): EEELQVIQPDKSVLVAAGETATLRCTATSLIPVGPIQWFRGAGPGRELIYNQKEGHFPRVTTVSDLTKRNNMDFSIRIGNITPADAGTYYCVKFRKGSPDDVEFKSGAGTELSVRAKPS
Summary of the method: as §1

[2] = target: T4, human SIRP-α v1 D1 domain (human, UniProt P78324 31-149); test: SPR, antibody immobilised on GLC chip
T4 construct: also called human v1; human α v1

[3] = target: T5, cynomolgus SIRP-α D1 domain (SEQ ID NO:11) (cynomolgus, UniProt Q5TFQ8 30-148 (human entry), limits assumed); test: SPR, antibody immobilised on GLC chip
T5 construct: also called cyno1
T5 chain: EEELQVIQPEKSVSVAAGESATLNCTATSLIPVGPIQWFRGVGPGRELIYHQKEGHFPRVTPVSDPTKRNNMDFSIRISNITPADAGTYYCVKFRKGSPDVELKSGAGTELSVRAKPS

[4] = target: T6, human SIRP-α v2 D1 domain (human); test: SPR, antibody immobilised on GLC chip; Table M cell, 119 Mut/mut on human v2
T6 construct: also called human v2; human α v2
Summary of the method: (§2)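 Antibodies purified with Protein A were amine-coupled (~1000 RU) to a ProteOn XPR36 GLC chip, and SIRP analytes were injected one-shot at 100, 33, 11, 3.7, 1.2 and 0 nM in PBS pH 7.4 with 0.01% Tween-20 at 25° C. Each run used 90 s association at 100 μL/min followed by 1200 s dissociation. KD was derived as kd/ka from a global Langmuir fit to double-referenced sensorgrams.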

[5] = target: T7, human SIRP-α v1 D1 domain (human, UniProt P78324 31-149); test: SPR, antibody immobilised on GLC chip; sentence of the text that cites Table M
T7 construct: biotinylated and captured on avidin in the ELISA; also called human v1
Summary of the method: as §2

[6] = target: T8, human SIRP-α v2 D1 domain (human); test: as above
T8 construct: biotinylated and captured on avidin in the ELISA; also called human v2
Summary of the method: as §2

[7] = target: T4, human SIRP-α v1 D1 domain; test: SPR, antibody immobilised on GLC chip; remark: listed apart in the source
Experimental: (§3) All experiments were performed at 25° C. using a SPR-based ProteOn XPR36 biosensor (BioRad, Inc, Hercules, Calif.) equipped with GLC or NLC sensor chips. […] Purification was carried out by standard Protein A affinity column chromatography and eluted antibodies were stored in PBS buffer.
(§4) For the method using GLC chip, the analytes were injected and flowed over anti-SIRPα antibodies immobilized (˜1000 RUs) on GLC chips using Proteon™ Amine Coupling Kit. For the immobilization step, GLC chip was activated with EDAC/Sulpho-NHS 1:1 (Biorad) diluted 1/100 for 300 s at 25 μL/min. Anti-SIRPα antibodies were diluted to 80 nM concentration in 10 mM sodium acetate buffer pH 4.5 and immobilized to the chip at 30 μL/min for 50 s. Chip was inactivated with ethanolamine for 300 s at 25 μL/min. The analytes (e.g., SIRP-α from different species, SIRP-β, SIRP-γ) were injected in a “one-shot” kinetic mode at nominal concentrations of 100, 33, 11, 3.7, 1.2 and 0 nM. Association times were monitored for 90 s at 100 μL/min, and dissociation times were monitored for 1200 s. The surfaces were regenerated with a 2:1 v/v blend of Pierce IgG elution buffer/4M NaCl. […]

human SIRPγ isoform 1 [8] = target: T9, human SIRPγ isoform 1 (human, UniProt Q9P1W8 29-147); test: SPR, antibody immobilised on GLC chip
T9 construct: also called sirpg; sirp-g
Experimental: as §3, §4

[9] = target: T6, human SIRP-α v2 D1 domain; test: SPR, antibody immobilised on GLC chip
Experimental: as §3, §4

[10] = target: T5, cynomolgus SIRP-α D1 domain (SEQ ID …); test: SPR, antibody immobilised on GLC chip
Experimental: as §3, §4

[11] = target: T10, NOD mouse SIRP-α D1 domain (mouse (NOD strain)); test: SPR, antibody immobilised on GLC chip
T10 chain: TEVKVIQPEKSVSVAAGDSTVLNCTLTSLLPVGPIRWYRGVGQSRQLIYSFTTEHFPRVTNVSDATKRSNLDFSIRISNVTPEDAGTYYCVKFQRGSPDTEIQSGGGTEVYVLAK
Experimental: as §3, §4

[12] = target: T11, C57BL/6 mouse SIRP-α D1 domain (mouse (C57BL/6 strain), UniProt P97797 32-148); test: SPR, antibody immobilised on GLC chip
T11 sequence: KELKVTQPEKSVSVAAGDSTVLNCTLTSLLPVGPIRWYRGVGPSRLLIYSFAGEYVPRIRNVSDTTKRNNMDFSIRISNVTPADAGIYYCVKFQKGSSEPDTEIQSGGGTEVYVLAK
Experimental: as §3, §4

[13] = target: T12, BALB/c mouse SIRP-α D1 domain (mouse (BALB/c strain)); test: SPR, antibody immobilised on GLC chip
T12 chain: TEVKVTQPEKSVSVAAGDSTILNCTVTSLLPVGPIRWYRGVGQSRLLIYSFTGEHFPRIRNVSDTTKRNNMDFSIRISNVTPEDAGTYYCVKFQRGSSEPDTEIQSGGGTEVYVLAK
Experimental: as §3, §4

[14] = target: T8, human SIRP-α v2 D1 domain; test: ELISA, target coated on the plate, scFv-Fc titrated from 0.008 to about 1 µg/ml, OD 405
Experimental: (§5) ELISA assays were carried out to screen binding of antibody clones to SIRP analytes and SIRP-α:CD47 complex. […] Plates were blocked with PBS™ (Phosphate Buffered Saline pH 7.4, 0.05% Tween®20 polysorbate, 3% milk), 50 ul of supernatant containing the secreted scFv-Fc are added for 1 hr at room temp. Plates were washed with PBST. 50 ul of anti-hFc-HRP (1:5000 Rockland 609-4303) added for 1 hr at room temp. Plates were washed with PBST. TMB was developed for 5 min and stopped with 1N HCl. ELISA results were read using BioTek Synergy H1 Hybrid Reader. The corresponding proteins used for the assay and described here are: human SIRPα V1 (SEQ ID NO: 5); human SIRPα V2 (SEQ ID NO:6); cynomolgus SIRPα (SEQ ID NO:11); mouse NOD SIRPα (SEQ ID NO: 8); human SIRPγ (SEQ ID NO: 15); CD47 (SEQ ID NO: 16); high affinity SIRPα V1 (SEQ ID NO: 42); high affinity SIRPα V2 (SEQ ID NO:17).

[15] = target: T13, NOD mouse SIRP-α D1 domain (mouse (NOD strain)); test: as above
T13 construct: also called mouse NOD SIRPα
T13 chain: T10 chain
Experimental: as §5

human SIRPγ isoform 1 [16] = target: T14, human SIRPγ isoform 1 (human, UniProt Q9P1W8 29-147); test: as above
T14 construct: also called human SIRP-γ v1; sirpg
Experimental: as §5

[17] = target: T4, human SIRP-α v1 D1 domain; test: SPR, Langmuir fit
human SIRPβ isoform 2 = target: T15, human SIRPβ isoform 2 (human, UniProt Q5TFQ8 30-148); test: SPR, Langmuir fit
T15 construct: also called Sirpb2; beta isoform 2
T15 sequence (Q5TFQ8 30-148 limits assumed): as the sequence (P78324 31-149 limits assumed) above, with V13I, L14S, T20S, R24H, A27V, G79S, D101H counted along it

human SIRPγ isoform 1 [18] = target: T9, human SIRPγ isoform 1; test: SPR, Langmuir fit
[19] = target: T6, human SIRP-α v2 D1 domain; test: SPR, Langmuir fit
[20] = target: T5, cynomolgus SIRP-α D1 domain (SEQ ID …); test: SPR, Langmuir fit
[21] = target: T16, cynomolgus SIRP-α D1 domain (SEQ ID NO:12) (cynomolgus, UniProt Q5TFQ8 30-148 (human entry), limits assumed); test: SPR, Langmuir fit
T16 construct: also called cyno2; Cyno2
T16 chain: T5 chain with E19D, A27V, T28S, V42A, H51N, Q52L, P62A

[22] = target: T10, NOD mouse SIRP-α D1 domain; test: SPR, Langmuir fit
[23] = target: T11, C57BL/6 mouse SIRP-α D1 domain; test: SPR, Langmuir fit
[24] = target: T12, BALB/c mouse SIRP-α D1 domain; test: SPR, Langmuir fit
human SIRPβ isoform 1 [25] = target: T17, human SIRPβ isoform 1 (human, UniProt O00241 30-148); test: SPR, Langmuir fit
T17 construct: also called sirpb1; Sirpb1

T1 sequence (chain, as listed by the source limits assumed): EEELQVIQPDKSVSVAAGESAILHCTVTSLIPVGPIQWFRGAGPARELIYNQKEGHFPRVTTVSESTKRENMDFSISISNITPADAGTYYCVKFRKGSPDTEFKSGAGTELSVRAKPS

Kd (human SIRP-α v2): 1.69 nM
binding result (human SIRPβ isoform 1 [1]): no binding
Kd (human SIRP-α v1): 6.05 nM
B1: antibody 213 (antibody, V domains shown)
VH: DVQLVESGGGVVRPGESLRLSCEASGFTFRNYYMTWVRQAPGEGLEWVSTISDTGDTAYYADSVKGRFTISRDNSKNSLYLQMNSLRADDTAIYYCAKSWIWWTFFDYWGLGTLVTVSS
VL: ALTQPASVSANLGGTVEITCSGGNSNHYGWYQQKSPGSAPVTLIYADTNRPSNIPSRFSGSTSGSTTTLTITGVQAEDEAVYYCGGSSTGDGIFGAGTTLTVL
notes: also called S213

Kd [7]: 0.551 nM
Kd (human SIRPγ isoform 1 [8]): 33.5 nM
Kd [9]: 1.74 nM
Kd [10]: 2.11 nM
Kd [11]: 0.596 nM
Kd [12]: 13.8 nM
Kd [13]: 0.361 nM
B4: antibody 136 variant MutRv_I2T/mut_V34M (antibody, human IgG1, V domains shown)
VH: EVQLVESGGGVVQPGRSLRLSCAASGFTFSSYDMNWVRQAPGKGLEWVSLISGSGEIIYYADSVKGRFTISRDNSKNTLYLQMNSLRAEDTAVYYCAKENNRYRFFDDWGQGTLVTVSS
VL: ETVLTQSPGTLSLSPGERATLSCRASQSVYTYLAWYQQKPGQAPRLLIYGASSRATGIPDRFSGSGSGTEFTLTISSLQSEDFAVYYCQQYYDRPPLTFGGGTKVEIK
notes: Human IgG1 with L234A/L235A/G237A/N297A; Labels are light chain/heavy chain

binding result [14]: no binding (tested: about 1 µg/ml)
binding result [15]: no binding (tested: about 1 µg/ml)
binding result (human SIRPγ isoform 1 [16]): no binding (tested: about 1 µg/ml)
B5: S138 (scFv)
scFv: EIVLTQSPGTLSVSPGERVILTCRASQSVDTYNLAWYQQKPGQAPRLLIYDLSTRATGIPDRFSGSGSGTEFTLTINSLEPEDFAVYYCHQYYDWPPYTFGGGTKVEIKGQSSRSSGGGGSSGGGGSDVQLVESGGGVVRPGESLRLSCAASGFTFSNYAMNWVRQAPGEGLEWVSGISGRGGDTYYADSVKGRFTISRDNSKNTLYLQMNSLRAEDTAIYYCAKGTWNYGSFDYWGLGTLVTVSSSLDPKSSDKTDTCPPCPAPELLGGPSVFLFPPKPKDTLMISRTPEVTCVVVDVSHEDPEVKFNWYVDGV
notes: also called clone S138

Continued, binder first:

B2: antibody 119 variant Mut/mut (VL mut all / VH mut) (antibody, human IgG1, V domains shown)
VH: EVQLLESGGGVVQPGGSLRLSCAASGFSFSNFAVTWVRQAPGKGLEWVSTIGSGDTYYADSVKGRFTISRDNSKNTLYLQMNSLRAEDTAVYYCAKDSTVSWSGDFFDYWGQGTLVTVSS
VL: EIVLTQSPATLSVSPGERATLSCRASQNVKNDLAWYQQKPGQAPRLLIYAARIRETGIPARFSGSGSGTEFTLTISSLQSEDFAVYYCQQYYDWPPFTFGGGTKVEIK
notes: Human IgG1 with L234A/L235A/G237A/N297A; Labels are in the order VL/VH
Kd [2]: 0.317 nM
Kd [3]: 0.195 nM
Kd [4]: 0.0875 nM

B3: 119 antibody variant with mutated heavy and light chains (antibody, human IgG1, V domains shown)
VH: B2 VH
VL: B2 VL
notes: human IgG1 with L234A, L235A, G237A, N297A
Kd [5]: 0.317 nM
Kd [6]: 0.0875 nM

B6: AB3 (as in Table J1) (antibody, V domains shown)
VH: AVTLDESGGGLQTPGGALSLVCKASGFIFSDYGMNWVRQAPGKGLEFVAQITSGSRTYYGAAVKGRATISRDNRQSTVKLQLNNLRAEDTGIYFCARDFGSGVGSIDAWGNGTEVIVSS
VL: ALTQPASVSANLGGTVKITCSGSRGRYGWYQQRSPGSAPVTVIYRDNQRPSNIPSRFSSSTSGSTSTLTITGVQADDESVYFCGSYDGSIDIFGAGTTLTVL
notes: also called antibody 3
Kd [17]: 0.162 nM
Kd (human SIRPβ isoform 2): 0.0678 nM
Kd (human SIRPγ isoform 1 [18]): 83.6 nM
Kd [19]: 0.0767 nM
Kd [20]: 2.29 nM
Kd [21]: 2.85 nM
Kd [22]: 1.63 nM
Kd [23]: 3.65 nM
Kd [24]: 1.16 nM
Kd (human SIRPβ isoform 1 [25]): 1.63 nM
